± gives the uncertainty stated by the source.
B1: Zinc finger homeobox protein 4, residues 2086 to 2141; numbered along this chain, Q86UP3 (parent)
chain: RPRTRITDDQLKILRAYFDINNSPSEEQIQEMAEKSGLSQKVIKHWFRNTLFKERQ

Variants of: B1
Assay: abundance fitness (aPCA) (normalised: wild type 0, dead -1); higher = more abundant; growth selection in yeast, the domain comes from the species named
Conditions: Homo sapiens

Variant	abundance fitness
Q56R	-0.024 ± 0.12
N49P	-0.383 ± 0.11
E34S	-0.162 ± 0.083
L38Q	-0.349 ± 0.11
I43D	-0.876 ± 0.17
Q40S	-0.115 ± 0.082
A16M	0.124 ± 0.12
D9K	-0.087 ± 0.09
D19R	-0.009 ± 0.068
T50S	-0.053 ± 0.078
E31T	-0.182 ± 0.12
K35F	-0.415 ± 0.11
Q40W	-0.11 ± 0.084
Y17F	0.025 ± 0.088
R15S	-0.012 ± 0.082
T4N	0.123 ± 0.13
M32V	-0.276 ± 0.084
F18E	-0.305 ± 0.094
E27W	0.021 ± 0.21
R48T	0.1 ± 0.1
E54S	-0.047 ± 0.08
P2H	0.187 ± 0.14
T4K	-0.329 ± 0.15
K44P	-0.716 ± 0.1

Variant	abundance fitness
I20T	0.077 ± 0.12
P2V	0.067 ± 0.081
K41M	-0.146 ± 0.12
N21C	-0.09 ± 0.18
R15M	0.138 ± 0.093
R1M	-0.634 ± 0.22
L11V	-0.18 ± 0.074
K41H	0.033 ± 0.14
R55V	-0.204 ± 0.078
N22D	-0.182 ± 0.25
I43F	-0.607 ± 0.14
Q40T	-0.188 ± 0.11
P24M	-0.676 ± 0.12
R55N	-0.255 ± 0.2
M32I	-0.244 ± 0.12
S39M	0.217 ± 0.34
I29D	-0.744 ± 0.12
K41T	-0.093 ± 0.11
I6V	-0.04 ± 0.077
A33Y	-0.531 ± 0.21
I6W	-0.553 ± 0.11
I6H	-0.271 ± 0.071
Q40H	-0.172 ± 0.13
L38C	-0.11 ± 0.11

Variant	abundance fitness
I6K	-0.433 ± 0.13
L38N	-0.769 ± 0.15
R55P	-0.118 ± 0.18
R5F	0.058 ± 0.075
R15C	-0.414 ± 0.13
R5T	0.182 ± 0.068
P2K	0.197 ± 0.15
I13D	-0.289 ± 0.15
K41C	0.032 ± 0.12
R48A	-0.047 ± 0.077
M32S	-0.564 ± 0.08
I20C	-0.095 ± 0.084
M32N	-1 ± 0.2
Y17V	-0.204 ± 0.079
S25Y	-0.471 ± 0.31
K12V	-0.045 ± 0.075
E31R	-0.007 ± 0.07
K44Y	0.049 ± 0.14
R1W	-1.13 ± 0.23
R55C	0.016 ± 0.12
R15H	-0.337 ± 0.15
A16G	0.035 ± 0.13
Y17H	-0.045 ± 0.08
I29N	-0.462 ± 0.2

Variant	abundance fitness
A16C	-0.075 ± 0.077
L11D	-0.069 ± 0.13
M32D	-1.37 ± 0.26
E26G	-0.154 ± 0.074
S39G	-0.227 ± 0.18
M32R	-0.911 ± 0.07
I13K	-0.062 ± 0.12
D9P	-0.002 ± 0.07
R15P	-0.939 ± 0.12
M32A	-0.55 ± 0.11
D9W	-0.155 ± 0.11
S23L	-0.07 ± 0.09
E31P	-0.316 ± 0.11
K53C	-0.201 ± 0.12
S36A	-0.06 ± 0.077
I43C	-0.367 ± 0.17
R48C	-0.056 ± 0.092
M32C	-0.154 ± 0.084
Q28V	-0.033 ± 0.074
P2S	0.057 ± 0.078
F52K	0.068 ± 0.19
F52V	0.062 ± 0.17
K44Q	-0.362 ± 0.13
L14S	-1.02 ± 0.14

Variant	abundance fitness
N49R	-0.009 ± 0.077
Y17W	-0.299 ± 0.097
N49D	0.085 ± 0.1
N21W	-0.111 ± 0.18
R48V	-0.111 ± 0.079
Q28R	0.037 ± 0.065
P2W	-1.01 ± 0.15
K53T	-0.042 ± 0.12
R3C	-0.343 ± 0.097
M32Y	-0.212 ± 0.12
D9Q	-0.083 ± 0.12
T4I	-0.048 ± 0.11
D8Q	0.081 ± 0.097
R48G	-0.042 ± 0.069
N21H	-0.117 ± 0.095
F47V	-0.041 ± 0.079
L11G	-0.172 ± 0.065
P2T	0.049 ± 0.1
E26W	-0.322 ± 0.11
F47P	-0.951 ± 0.11
E27S	-0.105 ± 0.17
P24T	-0.474 ± 0.084
E54N	-0.149 ± 0.15
W46S	-0.406 ± 0.075

Variant	abundance fitness
R5L	0.207 ± 0.066
R55I	-0.632 ± 0.2
P24H	-0.427 ± 0.08
K44V	-0.186 ± 0.1
E27G	-0.033 ± 0.096
Q30L	0.031 ± 0.088
S39A	-0.163 ± 0.25
N21I	-0.114 ± 0.12
E26V	-0.056 ± 0.078
Q30W	-0.349 ± 0.098
H45K	0.038 ± 0.092
F52T	0.052 ± 0.11
N49Q	-0.155 ± 0.11
R5G	-0.037 ± 0.069
W46K	-0.737 ± 0.12
E54L	-0.035 ± 0.074
S25P	-0.26 ± 0.38
Q56T	-0.07 ± 0.17
F18T	0.014 ± 0.1
I43H	-1.05 ± 0.16
Q28K	0.064 ± 0.12
R15G	-0.093 ± 0.07
R1A	-0.327 ± 0.37
M32T	-0.706 ± 0.14

Variant	abundance fitness
E26M	-0.032 ± 0.09
I13H	-0.333 ± 0.14
R15W	-0.133 ± 0.081
H45S	-0.004 ± 0.064
T4C	-0.965 ± 0.24
G37Q	-0.052 ± 0.1
D8I	0.036 ± 0.14
Q10I	-0.462 ± 0.12
R15L	-0.081 ± 0.072
R1K	-0.891 ± 0.33
K41A	-0.136 ± 0.084
L14T	-1.01 ± 0.12
F18Y	0.033 ± 0.11
D8F	-0.056 ± 0.14
L38M	-0.011 ± 0.11
A33C	0.181 ± 0.12
D9C	-0.011 ± 0.094
Q28W	-0.38 ± 0.085
G37T	-0.083 ± 0.1
Q56W	-0.492 ± 0.21
F18P	-0.224 ± 0.098
K44S	-0.069 ± 0.087
T50Y	-0.288 ± 0.13
W46M	-0.376 ± 0.096

Variant	abundance fitness
D8M	0.113 ± 0.088
I43A	-0.488 ± 0.075
F52A	-0.029 ± 0.15
Q56L	-0.214 ± 0.18
I20G	-0.03 ± 0.066
I6Y	-0.047 ± 0.08
P2D	0.033 ± 0.11
Q10R	-0.526 ± 0.078
N49S	-0.022 ± 0.078
K12E	-0.076 ± 0.1
F47H	-0.146 ± 0.15
P24A	-0.294 ± 0.08
E31F	-0.191 ± 0.11
E31S	-0.074 ± 0.074
S39K	0.081 ± 0.26
R48L	-0.04 ± 0.077
E34T	0.023 ± 0.11
I29A	-0.376 ± 0.075
F47T	-0.234 ± 0.093
R5P	0.172 ± 0.072
E31C	-0.141 ± 0.099
R15N	-0.07 ± 0.15
K44F	-0.023 ± 0.11
H45W	0.023 ± 0.1

Variant	abundance fitness
F47I	-0.416 ± 0.2
D8R	-0.183 ± 0.067
E26R	0.021 ± 0.071
L51G	-0.134 ± 0.078
N49K	0.123 ± 0.11
K35H	-0.349 ± 0.14
K12P	-0.16 ± 0.093
G37F	-0.46 ± 0.18
K35A	-0.247 ± 0.091
S36L	-0.214 ± 0.079
I20Q	0.054 ± 0.1
T50N	0.007 ± 0.14
V42P	-0.478 ± 0.11
A16L	-0.051 ± 0.071
W46T	-0.203 ± 0.091
A33T	0.029 ± 0.1
T7W	-0.774 ± 0.38
Q10M	-0.323 ± 0.11
D9F	0.071 ± 0.076
T50D	0.102 ± 0.15
K12Q	-0.029 ± 0.11
E27P	-0.24 ± 0.23
K41F	-0.02 ± 0.14
K41V	-0.124 ± 0.073

Variant	abundance fitness
K12W	-0.379 ± 0.082
L38K	-0.938 ± 0.15
K53M	-0.114 ± 0.13
K12I	-0.094 ± 0.15
K44T	-0.017 ± 0.11
E54A	-0.082 ± 0.073
N49L	-0.172 ± 0.07
Q10Y	-0.498 ± 0.13
T50L	-0.061 ± 0.081
T4L	-0.011 ± 0.081
W46I	-0.331 ± 0.18
N22I	0.204 ± 0.33
R3Q	0.201 ± 0.13
L11R	-0.026 ± 0.069
T4R	-0.413 ± 0.076
K12Y	-0.422 ± 0.13
R3K	-0.011 ± 0.16
S36Q	-0.342 ± 0.11
E34C	-0.429 ± 0.13
H45N	-0.061 ± 0.077
F52R	0.184 ± 0.13
R1V	-0.21 ± 0.23
Y17M	0.076 ± 0.1
T50I	-0.119 ± 0.1

Variant	abundance fitness
D19M	-0.033 ± 0.095
R48D	-0.09 ± 0.12
W46N	-0.762 ± 0.23
Q28G	-0.178 ± 0.072
S39C	-0.395 ± 0.17
E26T	0.133 ± 0.089
R15Q	0.022 ± 0.093
R3P	-0.096 ± 0.12
E34I	-0.211 ± 0.19
W46P	-0.698 ± 0.11
I20V	0.008 ± 0.069
P24K	-0.922 ± 0.15
I13S	-0.218 ± 0.088
L51P	-0.125 ± 0.12
Y17P	-0.963 ± 0.12
I29M	-0.081 ± 0.11
V42Q	-0.037 ± 0.11
R15D	-0.168 ± 0.11
Q30D	-0.495 ± 0.23
Q40G	-0.173 ± 0.069
R48Q	0.056 ± 0.11
N22S	0.281 ± 0.23
L11T	-0.115 ± 0.087
H45F	-0.082 ± 0.085

Variant	abundance fitness
I13L	-0.08 ± 0.072
L11E	0.059 ± 0.097
D19T	-0.104 ± 0.11
V42L	-0.085 ± 0.074
L14C	-0.671 ± 0.17
R3W	-0.569 ± 0.09
R3V	-0.037 ± 0.068
H45R	0.08 ± 0.066
F52G	0.035 ± 0.17
D9V	-0.162 ± 0.073
W46Y	0.001 ± 0.16
L51Q	0.126 ± 0.12
L14Y	-1.22 ± 0.33
R1N	0.247 ± 0.12
I20Y	-0.113 ± 0.12
F47Q	-0.342 ± 0.1
I20W	-0.273 ± 0.09
I43Y	-0.8 ± 0.14
T50F	-0.182 ± 0.16
Q28F	-0.416 ± 0.18
E34H	-0.314 ± 0.16
T4S	-0.198 ± 0.077
S25F	-0.468 ± 0.23
K44E	-0.031 ± 0.14

Variant	abundance fitness
K35Y	-0.537 ± 0.15
T4W	-1.16 ± 0.16
W46E	-0.141 ± 0.095
Q28Y	-0.236 ± 0.12
D8N	-0.28 ± 0.11
L11H	-0.165 ± 0.11
E31G	-0.106 ± 0.07
R48P	-0.444 ± 0.096
I43W	-0.928 ± 0.13
K44L	-0.204 ± 0.094
I43L	-0.195 ± 0.076
L38P	-0.982 ± 0.15
D19H	-0.333 ± 0.12
Q40R	-0.062 ± 0.068
K35C	-0.459 ± 0.093
F47E	-0.517 ± 0.098
L51M	0.005 ± 0.13
P24Y	-0.51 ± 0.087
P24V	-0.32 ± 0.081
E27V	-0.071 ± 0.14
K44H	-0.042 ± 0.11
P2G	0.048 ± 0.077
P2F	0.157 ± 0.13
L14I	-0.439 ± 0.42

Variant	abundance fitness
L14W	-0.777 ± 0.14
D19S	0.142 ± 0.085
R55W	-0.215 ± 0.08
I43E	-0.946 ± 0.12
A33H	0.191 ± 0.18
K35W	-0.615 ± 0.089
R5K	0.191 ± 0.1
A16R	0.096 ± 0.076
E34D	-0.014 ± 0.1
K12N	-0.007 ± 0.11
F18G	-0.184 ± 0.065
E27A	0.076 ± 0.15
L14E	-1 ± 0.14
F18W	-0.142 ± 0.086
K12A	-0.137 ± 0.084
S39E	0.127 ± 0.21
E26F	0.111 ± 0.14
R5N	0.184 ± 0.076
S23N	-0.004 ± 0.18
P2L	-0.047 ± 0.088
Q30F	-0.441 ± 0.24
I20R	-0.007 ± 0.067
